Experiment: soluble on expression in E. coli; label from the status in PepcDB or PDB records

Row | Sequence | soluble on expression in E. coli
1 | MPAAGQAPGPECPDVLIIGGGPAGCAAAIVLAQQGWAVTLLEKEQHPRFHIGESLLPMNIPILERLGVLEQVRDIGVLKRGADFPNDAGGYNTFRFSHALDAKADYAFQVPRAQFDQVLFARAREVGVDAREQVKVESVAFDGEQPVLQARGVDGVQQFRPRYLLDASGRDTFMGNRLKLKRANAKHQSAAVFSHFRGVTRRPGEDAGNISIYRHAHGWMWLIPLPDDVMSVGAVCYPDYMKTRKGDSEGFLLRTLALNPEVAARMADAERVAPVHATGNYAYECTRMSGPRWLLLGDAYTFVDPMFSSGVFLAMHSAERGAAMVDAVLRAPHREASLQRALSRELARGLSEFKWFIYRFTSPTMRALFAQPQNVWQVEQAVVAMLAGDVFDSPKVRRRLRVFRAIYSVTALSMLPRAWHAWRHRRRQARLGFDGDTLHRDAPLEHHHHHH | not soluble
2 | MKENFLKQKRMEKNLTLEQVGNFVGVGKSTVRKWETGMIENMGRDKIVALSKILDVSPLEILGIPETEETPFVVPTNIMNIYKQLTTENQEAVFRYAQKKLTEQNYF | not soluble
3 | MGLSDWELAAARAAIARGLDEDLRYGPDVTTLATVPASATTTASLVTREAGVVAGLDVALLTLNEVLGTNGYRVLDRVEDGARVPPGEALMTLEAQTRGLLTAERTMLNLVGHLSGIATATAAWVDAVRGTKAKIRDTRKTLPGLRALQKYAVRTGGGVNHRLGLGDAALIKDNHVAAAGSVVDALRAVRNAAPDLPCEVEVDSLEQLDAVLPEKPELILLDNFAVWQTQTAVQRRDSRAPTVMLESSGGLSLQTAATYAETGVDYLAVGALTHSVRVLDIGLDM | soluble
4 | MDQKEAPSFTEASVHDPSVIKVEDTFYVFGSHLAAAKTEDLRNWTQIATHVHEGNPLIPNVFVELAEAFEWANSNTLWAADVIQLEDGRFYMYYNACQGDAPRSALGVAVADDIEGPYENLGVFLKSGMWGEESPDGTIYDANVHPNAIDPHVFFDEEGKLWMVYGSYSGGIFILEMDPDTGFPLPGQGYGTHLMGGNHSRIEAPYIHYDKETEYYYLYVTFGGLDSTGGYNMRVARSKQPDGPYVDGEGHLMSEVRGAPGTLFDDASIEPYGVKQMGNFLFKRELGERGTGYVSPGHNSVYYDDEVDKIFLFFHTRFPERGEAHEIRVHQMFMNRKGWPVIAPYRYTGESLEKVKAKEVIGDYQWINHGKEISAEIKESVTVRLEKNHKVLGDVTGKWKKVGDYHVELQIDGETYYGVFLRQWDPVAEREVMTFTALSEEGIAIWGSQLEEKTDNEIVDAVYDDLTLEGTIISDVELPTRGMRQTTIAWSSSHEEVLSSSGKVNRPEIGEDDVVVSLTATISKGSAERIKTFELVVPGQTEGGLVAHYPLNGTLENAVDDARFGSGTVTGNRIDNPGGTIAFEQGIDGEAAVFDGTTGIRLPNGLISRNTYTVSFWLNPEQLTEFTTAFFAARSEHHWLSFVPRGHSGMNHDTMLWAGSAQWYDAGTGVKLPVGEWSHVAFSVDNGEIVIYLNGEERFRGENFPNLFTTPNAYFALGVNHWDAPFQGMIDELRIYDGVALTREEIVHLAKQKLEHHHHHH | soluble
5 | MKDLIIIGAGQAGLTMGYYLKQEGYNFLLLEAGKRVGDSWRNRYDSLQLFTPRSYSSLPGMALIGEKNEFPYKDEIATYLEEYARHFQLPVQLQTEVLKIKKEKEIFELHTPTEILQTKKVIIASGAFQQPFIPSVSANLSSHIFQIHSSQYKSPSQIPKGKVLVVGGGNSGMQIAVELAKTHEVTVSISHPLTFLPLQLFGKSIFNLLEKVGLLYAEINTKRGRWFQKRKDPIFGFEGKKLIRNGAIKLQEKVVSASRNNIMFQNGDTYSAESIIWSTGFVQNYNWIEIEQAVNEKGFPNHIKGISPVKGLYYIGLPWQSQRGSALICGVGKDAEYVLSEIKKIDQLEHHHHHH | soluble
6 | MTQKIEQSQRQERVAAWNRRTECDLAAFQNSPKQTYQAEKARDRKLCANLEEAIRRSGLQDGMTVSFHHAFRGGDLTVNMVMDVIAKMGFKNLTLASSSLSDCHAPLVEHIRQGVVTRIYTSGLRGPLAEEISRGLLAEPVQIHSHGGRVHLVQSGELNIDVAFLGVPSCDEFGNANGYTGKACCGSLGYAMVDADNAKQVVMLTEELLPYPHNPASIEQDQVDLIVKVNRVGDAAKIGAGTTRMTTNPRELLIARSAADVIVNSGYFKEGFSMQTGTGGASLAVTRFLEDKMRSRDIRADFALGGITATMVDLHEKGLIRKLLDVQSFDSHAAQSLARNPNHIEISANQYANWGSKGASVDRLDVVVLSALEIDRQFNVNVLTGSDGVLRGASGGHCDTAIASALSIIVAPLVRGRIPTLVDNVLTCITPGSSVDILVTDHGIAVNPARPELAERLQEAGIKVVSIEWLRERARLLTGEPQPIEFTDRVVAVVRYRDGSVIDVVHQVKELEHHHHHH | soluble
7 | MAHHHHHHMSRMPSTAARSQPYAFGPEGVMLDGGASEGRQNSVEALLAYCAARVAENPSWRTASWQQAGASNASAFRVPVSPRYLANASYAATGSPLCLRAGRIYLTDARIRAGIAEFQAAGLTVLPLTDDVLSRPSSRASKATVRVVPAMAVLLNGAWIATHFFHLVTDALEALRSAYQTWQDGVLLRIPTQTVLLHQPESNWMDRRGDTHGKMELSAALANAFSSPELARGSPYNSSFLFRSQSRHCAELEANATATMASPPPPRRQSPATVSTLCFCDGLLVTTHRLPVLERDILYGIQDWAARQFRASPYGVNRSVQEMERLRLQHALLSSTSTLWSIGTLTAPALSLSYKPRALFVHRTSRVIANASRYAGWMRAAGFRVEEVYLEKHTAAQQYHLGRYADIVVGMHGLGIGHAMWMERSPPRCRTVIEFRPWVIASMPTQPILILEGAMHYHFVTIPPIDVRFGPSVAHPAEERELLLSSARMVNAFRYPSFTDQIAIYDDERVKGVIADVRQHLERCLPP | not soluble
8 | MAHHHHHHMQRMRRIGREEEAARLVWNHVSHCSSALLRQCIRRPNLLEEVTVALCRTMHRGISGRKDSWMGHRSLAVLRSGAALRQFTPALCIPLCAAALDCGVHFATVQQHVAEIYRWDERTERWVLNMVRLIADCHSALMRVPLNCSLHSSYMRGLVQRVAYELPTLSSTCSIEVQVPSRNKLLALWTIVNDDVANGRLRQLTCQLFLDPVARSAFKEMRLADEVDNCNSGTDGGGGSKCRVPRSTLKGLLNEEVFVSVAVNCTTEHAFAIFMNAFLSTRQARDKLRYMHLVLSEMPFESTDICPRCTTETGNCEVS | not soluble
9 | MSLKRAIIIGATSGIGKEVAQRLLSEGWQIGIAGRRQSALEEFRQIAPEQIKIQSLDVTQEYSAGKLDALIHQLGGMDLFLLSSGIGFQNMELNMEIELNTARTNVEGFTRMVDTAFSYFRNNGGGHLAVISSIAGTKGLGVAPAYSATKRFQNTYIDALEQLSHLQKLDIHFTDIRPGFVATDLLNDGKHYPMLMKTDQVGRDIVRALHRKEGHHHHHH | not soluble
10 | MIVDFYFDFLSPFSYLANQRLSKLAQDYGLTIRYNAIDLARVKIAIGNVGPSNRDLKVKLDYLKVDLQRWAQLYGIPLVFPANYNSRRMNIGFYYSGAEAQAAAYVNVVFNAVWGEGIAPDLESLPALVSEKLGWDRSAFEHFLSSNAATERYDEQTHAAIERKVFGVPTMFLGDEMWWGNDRLFMLESAMGRLCRQNADLSS | soluble
11 | LSLLLEVSGNPKAGNVDREHDFDDLKFEHFLASAAGAFPAFLEVAEKRIIGEGVLRAVKESMRWHRAENVHFGAFLLLVPLISSWDAGGMVDIAEAARNRLRRTDFRDSLSVLEAFRLSNARVVEAGELNLKDRKTEEEIAQKKINLYEWMKMAPEENLIARELVDGFKISIEGAKFLLSFGNSGKAVVELYYHLLSKFPDPLVIAKMGREYAEKITEWAEKARTEEERKELDEKLLKDGANPGTIADLTASSI | not soluble
12 | MGSDKIHHHHHHMTRGIYNAAMGMLVDMAKLDRIANDLANVDTAGYKQDREAFRAYLRREVFRQEPNPVESRTKKVPIGPLEYATVLDEVRTDLSQGPVEETDVPYHLAINGEGFFRIEFNGGEYYTRNGEFTVNSEGYIVTNYGGYLLDENGERVRFFDDFTVDEEGYVRDAYGNIVTRIGVYNLENPEKFGNTLFTGENPSPSENFRIMQGYVEKSNVDALKAMVDMISAMRHYELSQRAVTVNDELNGKLINSLASLK | not soluble
13 | MAHHHHHHMQRQVIRRLGNRSAFPLVAAVARSSQIRGAVRGDSGSRARVIPSFMCSLRAYSGGHHEEPSSRSGQYLLDKSDVLTRVLEVVKNFEKVDASKVTPESHFVKDLGLNSLDVVEVVFAIEQEFILDIPDHDAEKIQSIPDAVEYIAQNPMAK | soluble
14 | MSLDSLNLNKHISGQFNAELESIRTQVMTMGGMVEQQLSDAITAMHNQDSELAKRVVEGDHQVNMMEVAIDEACVRIIAKRQPTASDLRLVMAIIKTIAELERIGDVADKICRTALEKFSQQHQPLLVSLESLGRHTVQMLHDVLDAFARMDLDEAVRIYREDKKVDQEYEGIVRQLMTYMMEDSRTIPSVLTALFCARSIERIGDRCQNICEYIFYFVKGQDFRHVGGDELDKLLAGKDPKEGHHHHHH | soluble
15 | AAAKPADKALQAQLPEMALPREAAPRLDGLAAVLPQIHPAEAGKPAESFSLALPPSQPESWSGKLQAALGERLQAMPAQNMDRATLRLDPPSLGTLEISLRHQAGALTVELTASHGEVVRQLQGIGEALRQDLGGRQYTQVAVEVREGM | not soluble
16 | MSLSNFKSISLTYRKAPLEIRERVALNEAECKSLMLRIKDFTDTAELLILSTCNRTEIYYTSNEDYSNDIIKLLGVEKNITGLIQQKEYFEIYNEQADAVLHLFEVGIGLDSQVVGDMQIVNQVKYAYQWSADLNLAGPFLHRLMHTIFFTNKRVVQETAFRDGAASVSYATVELSEELLSATPNANILIVGLGEIGADVCRNFKANTSFKNITLTNRSPLKSEALAAECGIEHVPFETLWEAVAKADLVISSVAKEEPLFTKEEIQKLSILSHKYFIDLSVPRSVDARAEELPGIIVYDIDHIQNRSNEALENRLNAIPHVRKIILDSIVEFNEWSKEMEVSPTINKLKNALEQIRKEELSRFVKQLSDEEAKKVDEITKSIMQKIIKLPVLQLKAACKRGEAETLIDVLNDLFNLDKQPEQIREGHHHHHH | soluble
17 | MSDSPIGSSQQVEPEHRTPDLMDIDPLIANLKALHEETRSDDDDDGQPSTSAKRKDSRADGIVIHQKKYSDPGRFLWIWLLGVRVPALSIDGEPHLPIEILDDMLTKKDKKDQMSFQNLLRYKNVYIRMASPSQFRAVMEKSKECENLNITSLSLMSRSDIERIMGELRLESMLTLAEHDNWDISDRVHVVHVNFIDYCSEWLESDDLEEDVMQSGTHGYWYKNRRNMRCIECQHCEGKFTPTDFIMHHHYPIKPSGFVHTGCNSFQWIRLIEVFDKSNENLEAWNKFVLNSHRAGKREYDEAAPHQAPPKRPAMETPVPVAADNGWEADEEEEGEEIVDRDADIEKCKLRNKKKMENLHIADFLGPSGSKGLKPRNKFEAVIIEQLNKMDDAALEALFLKSPEEYNLWVKESDFTHKVVTQQQEWKAKMKDPNFKSRASANFDVSKGEFDNMRHFDNASKATRQEIQQLAEQFANLDRDAKLLTPMEFVLREHALLKNVSADAIRVLCNRPPLPPLPPPPPPPKPKPAPVQPISLGNINFVALAQQLIASGIKLPLPIVTPPVVSTPAPVITPIPAALPISPNSDFLKQQLSTAMSSPALLSLYPKLTAGAYEQLAQFIKTTTVKN | not soluble
